Molecular target: Fluorescein-maleamide labeled purified FN (UniProt P02751)
Experiment: SDS-PAGE, non-reducing against reducing

Fluorescein-maleamide labeled purified FN (from UniProt P02751 32-2477) (natural protein)
stoichiometry N: 2
